Experimental data reported in the supplement of paper PMC12636428.

Test system: Saccharomyces cerevisiae
Assay: transcriptional activation domain activity (GFP:mCherry ratio, weighted mean of sorted bins, harmonized to initial dataset scale) (arbitrary fluorescence ratio units); higher = stronger transcriptional activation
Conditions: beta-estradiol 1 µM; induction time 4 h
Procedure, shortened: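 Barcoded tiles were sequenced after cells were sorted into 8 bins by GFP:mCherry ratio. Before sorting, cultures had been diluted 1:5 into SC with 1 uM beta-estradiol and held for 4 hours at 30 °C. The tiles were fused to an estradiol-inducible synthetic transcription factor and integrated at URA3 in yeast diploids carrying a GFP reporter. Activation activity is the read-weighted mean of bin median fluorescence, averaged over barcodes and linearly mapped onto the initial dataset scale, and tiles under 50 reads were left out.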

Sequence | transcriptional activation domain activity
MKFVFVPFAVSPPKPFFLLLFLLLFFTSTFCAFSISPFSLFCSSLFYCSRFLL | 52400
MKGIRLYFKYVLLHVLLLPPSLLPFFFPLSPLFYMSILMGFSSPFFFFFSFIH | 53000
MKGIRLYFRYVLLHVLLLLPSLPFFFPYLCRRFTCSFMNILIGFLFCFFLYIC | 55300
MKGVCLKVGTTKPKKPNSGERKIARVRLSSGKVITAYIQGEGHNVQQHSVVLV | 51000
MKGVCLKVGVVRPKKPNSGERKTARVRLSNGRQVTAYISGEGHNIQQHSVVLV | 53500
MKHETLFFLFCRSLTRFFPMFGASFFFVLFLDLFVFVFCVVYGYSRFIFFLFV | 50300
MKIHECTGVVYIGNVLCHKQPQVLLGLMFFMDLTLFFLDSYLWYIICNTIFSV | 68700
MKILRLYLTKLPFLARPILTQLLQESLFRYGIVRELGIYLRQNYFDNTGRFTL | 83400
MKILSFLCTYSLSFTLTIPNSLLSFLRTLFNFTNNYKYMILLLLGYLCLIGLF | 35600
MKILYCILCMLFFFLFLSFYIQKKILFSLTCVFTLPPLSLFLFFFLFIVQILC | 55700
MKIVWFSGPKVCTLFIFLLFCFLLSCCSAFLVSFFCWFLSCWLFLLAFGLLFF | 49400
MKKKKGEGMKKERRRRGGEGGGKGALRREKKGTGTGKDGEREKQEKGEEGKCN | 29900
MKKLEKLLLSNDLTSQKKAFLVLCRMHYLTSSLLSSCVVVLVVGWSSIQKNTT | 63400
MKLMLSLYLLRMIFSLLVFFLLSGNVVATLFGFSMCFLIRFGWCCVLSYVLSF | 68500
MKLPWDDSVTIFLVNYVDFLLLFPFVLLMEFIFDDLPWLSLYVLKHYYNILYM | 38600
MKLVCHSLQLHFLSILVLEDLLIATLRVAQSCITAFFWRNHFSFTCLCLLTML | 63200
MKLVRFLMKLNNETVTIELKNGSVIHGTITSVDPQMNTHLKSVKLSLRTAAPG | 24700
MKPITPKLEEQEPAAYGAAASAATVPTTKRKCVSSACVPCRRRKSKVTPRNPL | 34500
MKQHEYFHLGINLFCPPFFILKSYKEAILSLLLAFKILEIWTFFFIFPLFFLF | 47800
MKRSAAALVSYPSSDEETSEAQAKSEPIKKKKKLPQLSSSLVVPVPVDNPALH | 41300
MKRVLHVRNVARVNSGGKVRSVSALVVVGNGQGAAGYGEGRAVDAAAAVQKAT | 54500

Sequence | transcriptional activation domain activity
MKRVYKLNTCLFFYNSYNPFHIYFYSFIHSNMPAMYHLFSILLLWLNCLSLVQ | 44500
MKSHDLFFFLLLLFQLTSFSSIQLFPAVRVILHVLSHLFMVLHAYCCLPPFIF | 64400
MKSLPFGIHTAVCDLISLLLLLLLFFFFFFLLASIWVLDNFFPFFPFSRHLYS | 37500
MKSVVFCFLPLFFFCHSSKANHSSTFISMPPFFSLFFFFFPFSHFPTLSVLFG | 50600
MKTINILTTPPLHIFFSTPIVYSLFLLLNFFPIFFFFFFFFLYSLPFFFFIVA | 52100
MKTPPPQLGFFVGVLVLYAFFFIFLFFYFLFYGDIHLKQEDIIYVWNTYWAIW | 20200
MKVDLNKHPSCRRIIWVGYTKICTFLIPDKLLVYLSLTTQARRIAWREKLTLF | 59600
MKVDSYTDYLTGIFIHCGLYDTNHDPNYPALYYRCVLLDSTWLVGLLTCFLWL | 65100
MKVFCSSFPFSNPILFYFSLLQIIFDYWLYNFMGSFYFWLPLAPFFFFFFLVL | 47500
MKVNRPFACSHEGCEKAFARKGELTKHERLHSGERPFACSHCEKAFGRSDARK | 16000
MLAGAFLPLLFGFFFFSFPTSHTPPFHLLPPGFQFLPVSTSFSYFFCFCFFFP | 39100
MLAKGVWLACMFFFFFFFRLSFLNGSWCEYFYYLLCFFNSSYFFSSLSLRISF | 48300
MLAMISFFMYPPPLLFFFALWLSFSLFSIHKPPWLLFQNVHFYVLFLFFSFLA | 36300
MLARFKWSMWRMSLVRALRASLNITLFFYFLFPPRYSYVFLFLFLSFFLFFFS | 32500
MLAWIYGVFFSRSIMYCPLILLITCALDFHFFYFSYLFLWGLFRLRGYIYHGW | 52000
MLAYRSQQGWSEGDFLACRWFFSFFFPLFLPLSPPSFLCPFSFLFLFFLLLHL | 45300
MLAYTHFLIMLDRDILNICCVIYFYCLVFICLLLTFLLLIAPLNTCVGLCWKG | 54400
MLCADLFFRFVLVKILVFILYDYGRGECDIVIMLVFFFFFPPPPPFFSFFFLF | 65300
MLCDATSGLWILLCFFFFCVVLFVLIVSVFSTLPMWMSYSFFFLFVGFDLLLS | 35600
MLCFIDLLIFGISLCFLSLLLFLSFFLLFFFFFLVFSEEFVLLHSAAWSFILS | 41200
MLCFLYHLVSMCTLLHCLYLLPVLFLIFYASFFLLLACTWSSVRCLISLFFCL | 57300

Sequence | transcriptional activation domain activity
MLCGAMPIVSLFSFYTFFFVFWCYLLKFFSVMAWLSTHIALLPSFFVLLTFSL | 40600
MLCIPFCVLFCVVMGLINYGAFVDPCFLSFYVLLSTLLQLPSSFLPFFLFLPP | 66900
MLCIRYLIYFLLLGESLVGSFLPPFTIYISLFFSSSIPCSTWVSFPLLHHTYL | 35900
MLCIWLLSLYVWFVQEKGAYKPVLSSSFFFWLILQVYVHRYWLPFPSLTFLYH | 55500
MLCLCTIWIYNAQICYYLSSCSTLLVTDCCCCYYYSLLFYILTSSFFQILLST | 50100
MLCLGLVDVYVNFLIFQLYNFLFLFGFLRWINEFVFGFPIHCLFCVILYLLIL | 30900
MLCLTYLVFLRVYGHLLWVELGLFFFSFSKSNYHVIRHGLPFFCYNGAWMEFL | 56900
MLCMTMTTCMQWLAQFMIVYSLPYMVVSIKSFTFIFFAVCTTFSFIFTLLFVP | 41900
MLCRLCFFVFTRAVLLYLIGLFFNLFRLCLSLRFNIFVSFVFLDFCMSFPSTL | 40200
MLCYAVLWYFVYITFFYINYDMVFLISYLVFLKQLIDRICIIIFIFSFIFFIF | 47400
MLDLLVVHFPISNGLIEDNDLKVLVKAAVGVVLRKDMSLNRRLYAWLLGAQEG | 44600
MLDVILYLPCLLITYLCWAVWFLFIVFLCFLLCWFCFVIDGLFPFFFITFVFL | 56100
MLDVNMSCPFADIRYLLVFSCYFADYLLMLQIWGFCLWLFTLIYMVGGVWLMV | 34300
MLEGILGWSKWQKYSIKWYIWLPRLFFQSFFPFFSCPISLQKFSVLLFHFFFL | 59700
MLETRFINNLVPLYRFLLPFYIFFFFSIYCYYLTIDPHYFSLSSMVFFFSCCT | 57600
MLFARLHPVADETLIPFFCFWPSRLFVVLLVSFLHLIILFLSCFFFNCFLLFF | 50300
MLFFFCPIYLKLLIFFLCIVRSICQIFVFAYYLHRIYGVVCFSLLFFSKIQLR | 58200
MLFFFLYIFLCGCFPFWNMSIFFSVIPPFFSFLPLMLLFFFFFGMFGQRINIF | 36300
MLFFFSGLLFFLSLLSLVFLFALFFIRISTPTIRFRLWFFLLLLLLFSLFLLF | 45500
MLFFHQDTVVGQLFTRYTALIVLIFKSSSVLVFVLFLFFFFFFWPIRILVSFI | 37100
MLFGRSFMGTYFISGKHVFFFFLVFFNSLFLFYLLTSTFISICITGSLFFFVL | 30400

Sequence | transcriptional activation domain activity
MLFHFLAFPFLFFIFFLCCFSSWVAFHSPFSFLIMFSFEWIMLFFIRCTASSV | 41600
MLFIFFVIFFYFFLFSSIFFYHFIFLFSLELSLYFVDLSLELIPIYFPVCILS | 46300
MLFIPFCVLFFVWLWGLINYGAFVDPCFLSFYVLLSTLLQLPSSSFLSFFALF | 54400
MLFIYEVFPSFSHSPIHSPFISFPSSLPSLSLPESLCICLWIVLFLTFNFYTL | 56900
MLFLFFFIHILHPFFFFFNPFFLFLSFFFISFCTSVCLCMRKQLTRIIFLNYI | 50500
MLFLMCSLFFFVVFFLWSFFCGLLSLWCICYDISVGAWLTFGLLLVLWLLCIC | 23900
MLFLMYIFYLCRCLLLFFLTDIMISLLLPSLFSPLITLFLFFTLFKYMYIYAN | 65400
MLFLPSYSFSVFLFLFLLFALTVQVCLFLFTTWLVSCFDMYVFVWVGVCLCAR | 47700
MLFPCGVLFLSVFSISDTYVAFFFFFFFSFGWSFVSIGFLLFTIFFLGISFFF | 32300
MLFPFRVSAISPDVICFIPLCFSFCYHFAIRVRGILPSRVRALMMYVWFVWYF | 51900
MLFPPPPFSLFFFSLPFFLFFKTDLFFPCLIFLIPLYPFSPLVGDRLAILLGV | 55100
MLFSLYLFFYFLFFVCDGLPYFWFYKHTRFSVNYVSSSPPFCWSLFFLFFYFF | 62000
MLFSLYLFFYFLFFVCDGYVTMGSVFFFCSCWWCSYYYLTINIGLTNYFFPPL | 53300
MLFSTFFHFMILLCFLLLLCFFYFYDFTYLYGPPMIFYFYYFSLCLYLNKLQF | 41600
MLFTIVPLLCILHHIVLHPIFPSLFYTHIHLCTFFFFFNSVFFFFMFYILVFN | 50200
MLFVCFFWLWGWWLVVVVFVFLFFSFFLLLSSEFTDPFAFFCLFFFVLLHFSF | 44000
MLFVFAQLHQVPLSEYFLLGCLYWFFYHIIFSSIFRPSHSIGMASGLPMLYTP | 45000
MLFYFYFYFYFYAFSIFSFYVIFYFLYFFFLFRPGLLYLLLLFFSILFVLFLP | 64900
MLGKGRIMEYLLTFVWGFGVHILIFYLSCTGVIMGFLLIYTYSTFCFCFHHYV | 67600
MLGPFSVFLSVFPPFAAGFGTALFPFFFSCCLCFCCWCTSFALFAPLTALFAV | 53300
